# Key:
# [1] = target: core-fucosylated RNase B (21) (bovine) (UniProt P61823); experiment: ELISA
# [2] = target: S2G2F-rituximab (30), core-fucosylated sialyl complex type glycoform of rituximab (human); experiment: ELISA
# Chain of UniProt P61823 (P61823 27-150): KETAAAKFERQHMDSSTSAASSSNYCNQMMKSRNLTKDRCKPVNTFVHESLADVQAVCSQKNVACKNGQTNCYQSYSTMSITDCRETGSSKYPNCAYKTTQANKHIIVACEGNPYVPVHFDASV
EC50 [1] [µM],EC50 [2] [µM],Molecule
275,,Aleuria aurantia lectin (AAL) (from UniProt P18891 1-313) (natural protein)
,15,"Aleuria aurantia lectin (AAL) (natural protein, biotin (AAL-biotin)) MPTEFLYTSKIAAISWAATGGRQQRVYFQDLNGKIREAQRGGDNPWTGGSSQNVIGEAKLFSPLAAVTWKSAQGIQIRVYCVNKDNILSEFVYDGSKWITGQLGSVGVKVGSNSKLAALQWGGSESAPPNIRVYYQKSNGSGSSIHEYVWSGKWTAGASFGSTVPGTGIGATAIGPGRLRIYYQATDNKIREHCWDSNSWYVGGFSASASAGVSIAAISWGSTPNIRVYWQKGREELYEAAYGGSWNTPGQIKDASRPTPSLPDTFIAANSSGNIDISVFFQASGVSLQQWQWISGKGWSIGAVVPTGTPAGW"
